Km data for 1 protein are collected here from PMC11180205, “Single-molecule reconstruction of eukaryotic factor-dependent transcription termination” (Nature Communications, 2024).

Substrate in this series: Nc1ncnc2c1ncn2[C@@H]1O[C@H](COP(=O)(O)OP(=O)(O)OP(=O)(O)O)[C@@H](O)[C@H]1O
In words: single-molecule fluorescence (FRET / SNAP649 dwell time), Michaelis-Menten fit of k1 versus ATP. Particulars: k1 step: ATP-dependent translocation on nascent RNA to stalled Pol II TEC (bioPol II/RNA-Cy3/DNA or Pol II/RNA-Cy3/bioDNA, 28 bp transcription unit); 10 nM Sen1 HD-SNAP649, 2 nM TFIIS, UTP and CTP, 20; pH 8.0. Type of series: biochemical, Saccharomyces cerevisiae.

B1: Sen1 HD-SNAP649 (Sen1 helicase domain) (Saccharomyces cerevisiae S288C) (protein)
chain: AELAKQELEHMRKRLNVDMNPLYEIILQWDYTRNSEYPDDEPIGNYSDVKDFFNSPADYQKVMKPLLLLESWQGLCSSRDREDYKPFSIIVGNRTAVSDFYDVYASVAKQVIQDCGISESDLIVMAYLPDFRPDKRLSSDDFKKAQHTCLAKVRTLKNTKGGNVDVTLRIHRNHSFSKFLTLRSEIYCVKVMQMTTIEREYSTLEGLEYYDLVGQILQAKPSPPVNVDAAEIETVKKSYKLNTSQAEAIVNSVSKEGFSLIQGPPGTGKTKTILGIIGYFLSTKNASSSNVIKVPLEKNSSNTEQLLKKQKILICAPSNAAVDEICLRLKSGVYDKQGHQFKPQLVRVGRSDVVNVAIKDLTLEELVDKRIGERNYEIRTDPELERKFNNAVTKRRELRGKLDSESGNPESPMSTEDISKLQLKIRELSKIINELGRDRDEMREKNSVNYRNRDLDRRNAQAHILAVSDIICSTLSGSAHDVLATMGIKFDTVIIDEACQCTELSSIIPLRYGGKRCIMVGDPNQLPPTVLSGAASNFKYNQSLFVRMEKNSSPYLLDVQYRMHPSISKFPSSEFYQGRLKDGPGMDILNKRPWHQLEPLAPYKFFDIISGRQEQNAKTMSYTNMEEIRVAIELVDYLFRKFDNKIDFTGKIGIISPYREQMQKMRKEFARYFGGMINKSIDFNTIDGFQGQEKEIILISCVRADDTKSSVGFLKDFRRMNVALTRAKTSIWVLGHQRSLAKSKLWRDLIEDAKDRSCLAYACSGFLDPRNNRAQSILRKFNVPVPSEQEDDYKLPMEYITQGPDEVKSN
notes: helicase domain, residues 1095-1904; C-terminal PreScission site, SNAP-tag and 10xHis-tag kept, labelled with SNAP-Surface 649; expressed in E. coli BL21(DE3) codon plus RIPL; single molecule acts
Take B1: the Km – broadly, the concentration of substrate that gives half-maximal velocity – was 40 ± 15 µM.
